# Numbered stars: 1 amine (or outer) side, 2 acyl side, 3 side chain; on linkers, the order of the positions; unused ones are H or OH. Bridge positions count the residues as written; N and C are the ends. * marks the point of attachment. C20 diacid = O=C(O)CCCCCCCCCCCCCCCCCCC(=O)*; γGlu = O=C(O)[C@H](CCC(=O)[*:2])N[*:1]
# T1: rat calcitonin receptor (rat, UniProt P32214 25-516)
# T1 construct: whole, on cells; Used as membranes prepared from the transfected cells; also called rCTR; rat calcitonin (a) receptor
# T1 sequence (looked up): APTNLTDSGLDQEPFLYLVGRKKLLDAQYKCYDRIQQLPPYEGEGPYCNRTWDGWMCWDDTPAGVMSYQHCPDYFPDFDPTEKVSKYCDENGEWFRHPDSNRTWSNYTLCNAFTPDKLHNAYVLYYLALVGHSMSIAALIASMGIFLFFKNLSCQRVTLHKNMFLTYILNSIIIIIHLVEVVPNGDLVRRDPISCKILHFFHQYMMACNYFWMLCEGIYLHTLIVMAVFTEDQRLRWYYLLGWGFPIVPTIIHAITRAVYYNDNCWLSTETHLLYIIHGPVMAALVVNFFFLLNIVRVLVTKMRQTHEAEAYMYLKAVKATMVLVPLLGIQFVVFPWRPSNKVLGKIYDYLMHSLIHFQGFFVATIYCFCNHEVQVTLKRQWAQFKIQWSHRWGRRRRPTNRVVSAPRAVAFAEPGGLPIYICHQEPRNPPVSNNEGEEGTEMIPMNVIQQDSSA
# T2: human calcitonin receptor (human, UniProt P30988 25-474)
# T2 construct: whole, on cells; Used as membranes prepared from the transfected cells (Assay VII); also called hCTR; hCT
# T2 sequence (looked up): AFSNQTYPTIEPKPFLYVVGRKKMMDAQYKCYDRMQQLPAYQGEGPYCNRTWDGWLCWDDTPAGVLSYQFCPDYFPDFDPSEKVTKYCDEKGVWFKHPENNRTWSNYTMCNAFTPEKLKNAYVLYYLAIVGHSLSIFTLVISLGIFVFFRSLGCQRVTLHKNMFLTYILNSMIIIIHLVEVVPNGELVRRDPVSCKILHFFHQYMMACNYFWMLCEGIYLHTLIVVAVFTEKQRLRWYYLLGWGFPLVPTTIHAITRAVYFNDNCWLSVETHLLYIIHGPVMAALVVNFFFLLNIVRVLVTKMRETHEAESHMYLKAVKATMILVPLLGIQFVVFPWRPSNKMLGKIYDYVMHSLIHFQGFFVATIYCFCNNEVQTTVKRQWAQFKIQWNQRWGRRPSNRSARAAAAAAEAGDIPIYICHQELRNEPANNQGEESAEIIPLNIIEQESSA
# T3: rat amylin receptor (rat calcitonin receptor + rat RAMP 3) (rat, UniProt P32214 25-516; Q9JJ73 23-147)
# T3 construct: whole, on cells; Used as membranes prepared from the transfected cells; also called rAmylin-R; rat amylin 3(a) receptor
# T3 sequence (looked up) 1: T1 sequence (looked up)
# T3 sequence (looked up) 2: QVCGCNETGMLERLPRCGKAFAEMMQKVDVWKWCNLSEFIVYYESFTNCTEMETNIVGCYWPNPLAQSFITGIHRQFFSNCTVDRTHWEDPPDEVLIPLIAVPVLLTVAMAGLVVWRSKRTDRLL
# B1: N^α1-[(4S)-4-carboxy-4-(19-carboxynonadecanoylamino)butanoyl]-[Glu14,Arg17,Pro21,Pro26]-h-amylin (peptide)
# peptide: {C20 diacid-γGlu}-KCNTATCATQRLAEFLRHSSPNFGAPLSSTNVGSNTY-NH2
# modifications: disulfide 2-7
# SMILES: CC(C)C[C@H](NC(=O)[C@H](CCCNC(=N)N)NC(=O)[C@H](CCC(N)=O)NC(=O)[C@@H](NC(=O)[C@H](C)NC(=O)[C@@H]1CSSC[C@H](NC(=O)[C@H](CCCCN)NC(=O)CC[C@H](NC(=O)CCCCCCCCCCCCCCCCCCC(=O)O)C(=O)O)C(=O)N[C@@H](CC(N)=O)C(=O)N[C@@H]([C@@H](C)O)C(=O)N[C@@H](C)C(=O)N[C@@H]([C@@H](C)O)C(=O)N1)[C@@H](C)O)C(=O)N[C@@H](C)C(=O)N[C@@H](CCC(=O)O)C(=O)N[C@@H](Cc1ccccc1)C(=O)N[C@@H](CC(C)C)C(=O)N[C@@H](CCCNC(=N)N)C(=O)N[C@@H](Cc1c[nH]cn1)C(=O)N[C@@H](CO)C(=O)N[C@@H](CO)C(=O)N1CCC[C@H]1C(=O)N[C@@H](CC(N)=O)C(=O)N[C@@H](Cc1ccccc1)C(=O)NCC(=O)N[C@@H](C)C(=O)N1CCC[C@H]1C(=O)N[C@@H](CC(C)C)C(=O)N[C@@H](CO)C(=O)N[C@@H](CO)C(=O)N[C@H](C(=O)N[C@@H](CC(N)=O)C(=O)N[C@H](C(=O)NCC(=O)N[C@@H](CO)C(=O)N[C@@H](CC(N)=O)C(=O)N[C@H](C(=O)N[C@@H](Cc1ccc(O)cc1)C(N)=O)[C@@H](C)O)C(C)C)[C@@H](C)O
# notes: Derivative of human amylin; also called compound 7
# B2: N^α1-[(4S)-4-carboxy-4-(19-carboxynonadecanoylamino)butanoyl]-[Glu14,Arg17,Pro21,Pro27,Arg35]-h-amylin (peptide)
# peptide: {C20 diacid-γGlu}-KCNTATCATQRLAEFLRHSSPNFGAIPSSTNVGSRTY-NH2
# modifications: disulfide 2-7
# SMILES: CC[C@H](C)[C@H](NC(=O)[C@H](C)NC(=O)CNC(=O)[C@H](Cc1ccccc1)NC(=O)[C@H](CC(N)=O)NC(=O)[C@@H]1CCCN1C(=O)[C@H](CO)NC(=O)[C@H](CO)NC(=O)[C@H](Cc1c[nH]cn1)NC(=O)[C@H](CCCNC(=N)N)NC(=O)[C@H](CC(C)C)NC(=O)[C@H](Cc1ccccc1)NC(=O)[C@H](CCC(=O)O)NC(=O)[C@H](C)NC(=O)[C@H](CC(C)C)NC(=O)[C@H](CCCNC(=N)N)NC(=O)[C@H](CCC(N)=O)NC(=O)[C@@H](NC(=O)[C@H](C)NC(=O)[C@@H]1CSSC[C@H](NC(=O)[C@H](CCCCN)NC(=O)CC[C@H](NC(=O)CCCCCCCCCCCCCCCCCCC(=O)O)C(=O)O)C(=O)N[C@@H](CC(N)=O)C(=O)N[C@@H]([C@@H](C)O)C(=O)N[C@@H](C)C(=O)N[C@@H]([C@@H](C)O)C(=O)N1)[C@@H](C)O)C(=O)N1CCC[C@H]1C(=O)N[C@@H](CO)C(=O)N[C@@H](CO)C(=O)N[C@H](C(=O)N[C@@H](CC(N)=O)C(=O)N[C@H](C(=O)NCC(=O)N[C@@H](CO)C(=O)N[C@@H](CCCNC(=N)N)C(=O)N[C@H](C(=O)N[C@@H](Cc1ccc(O)cc1)C(N)=O)[C@@H](C)O)C(C)C)[C@@H](C)O
# notes: Derivative of human amylin; also called compound 16
# B3: N^α1-[(4S)-4-carboxy-4-(19-carboxynonadecanoylamino)butanoyl]-[Glu14,Arg17,Pro21,Pro27,Pro29]-h-amylin (peptide)
# peptide: {C20 diacid-γGlu}-KCNTATCATQRLAEFLRHSSPNFGAIPSPTNVGSNTY-NH2
# modifications: disulfide 2-7
# SMILES: CC[C@H](C)[C@H](NC(=O)[C@H](C)NC(=O)CNC(=O)[C@H](Cc1ccccc1)NC(=O)[C@H](CC(N)=O)NC(=O)[C@@H]1CCCN1C(=O)[C@H](CO)NC(=O)[C@H](CO)NC(=O)[C@H](Cc1c[nH]cn1)NC(=O)[C@H](CCCNC(=N)N)NC(=O)[C@H](CC(C)C)NC(=O)[C@H](Cc1ccccc1)NC(=O)[C@H](CCC(=O)O)NC(=O)[C@H](C)NC(=O)[C@H](CC(C)C)NC(=O)[C@H](CCCNC(=N)N)NC(=O)[C@H](CCC(N)=O)NC(=O)[C@@H](NC(=O)[C@H](C)NC(=O)[C@@H]1CSSC[C@H](NC(=O)[C@H](CCCCN)NC(=O)CC[C@H](NC(=O)CCCCCCCCCCCCCCCCCCC(=O)O)C(=O)O)C(=O)N[C@@H](CC(N)=O)C(=O)N[C@@H]([C@@H](C)O)C(=O)N[C@@H](C)C(=O)N[C@@H]([C@@H](C)O)C(=O)N1)[C@@H](C)O)C(=O)N1CCC[C@H]1C(=O)N[C@@H](CO)C(=O)N1CCC[C@H]1C(=O)N[C@H](C(=O)N[C@@H](CC(N)=O)C(=O)N[C@H](C(=O)NCC(=O)N[C@@H](CO)C(=O)N[C@@H](CC(N)=O)C(=O)N[C@H](C(=O)N[C@@H](Cc1ccc(O)cc1)C(N)=O)[C@@H](C)O)C(C)C)[C@@H](C)O
# notes: Derivative of human amylin; also called compound 37
# B4: N^α1-[(4S)-4-carboxy-4-(19-carboxynonadecanoylamino)butanoyl]-[Glu14,Arg17,Pro21,Pro27,His35]-h-amylin (peptide)
# peptide: {C20 diacid-γGlu}-KCNTATCATQRLAEFLRHSSPNFGAIPSSTNVGSHTY-NH2
# modifications: disulfide 2-7
# SMILES: CC[C@H](C)[C@H](NC(=O)[C@H](C)NC(=O)CNC(=O)[C@H](Cc1ccccc1)NC(=O)[C@H](CC(N)=O)NC(=O)[C@@H]1CCCN1C(=O)[C@H](CO)NC(=O)[C@H](CO)NC(=O)[C@H](Cc1c[nH]cn1)NC(=O)[C@H](CCCNC(=N)N)NC(=O)[C@H](CC(C)C)NC(=O)[C@H](Cc1ccccc1)NC(=O)[C@H](CCC(=O)O)NC(=O)[C@H](C)NC(=O)[C@H](CC(C)C)NC(=O)[C@H](CCCNC(=N)N)NC(=O)[C@H](CCC(N)=O)NC(=O)[C@@H](NC(=O)[C@H](C)NC(=O)[C@@H]1CSSC[C@H](NC(=O)[C@H](CCCCN)NC(=O)CC[C@H](NC(=O)CCCCCCCCCCCCCCCCCCC(=O)O)C(=O)O)C(=O)N[C@@H](CC(N)=O)C(=O)N[C@@H]([C@@H](C)O)C(=O)N[C@@H](C)C(=O)N[C@@H]([C@@H](C)O)C(=O)N1)[C@@H](C)O)C(=O)N1CCC[C@H]1C(=O)N[C@@H](CO)C(=O)N[C@@H](CO)C(=O)N[C@H](C(=O)N[C@@H](CC(N)=O)C(=O)N[C@H](C(=O)NCC(=O)N[C@@H](CO)C(=O)N[C@@H](Cc1c[nH]cn1)C(=O)N[C@H](C(=O)N[C@@H](Cc1ccc(O)cc1)C(N)=O)[C@@H](C)O)C(C)C)[C@@H](C)O
# notes: Derivative of human amylin; also called compound 18
# B5: N^α1-[(4S)-4-carboxy-4-(19-carboxynonadecanoylamino)butanoyl]-[Glu14,Arg17,Pro21,Pro27,His34]-h-amylin (peptide)
# peptide: {C20 diacid-γGlu}-KCNTATCATQRLAEFLRHSSPNFGAIPSSTNVGHNTY-NH2
# modifications: disulfide 2-7
# SMILES: CC[C@H](C)[C@H](NC(=O)[C@H](C)NC(=O)CNC(=O)[C@H](Cc1ccccc1)NC(=O)[C@H](CC(N)=O)NC(=O)[C@@H]1CCCN1C(=O)[C@H](CO)NC(=O)[C@H](CO)NC(=O)[C@H](Cc1c[nH]cn1)NC(=O)[C@H](CCCNC(=N)N)NC(=O)[C@H](CC(C)C)NC(=O)[C@H](Cc1ccccc1)NC(=O)[C@H](CCC(=O)O)NC(=O)[C@H](C)NC(=O)[C@H](CC(C)C)NC(=O)[C@H](CCCNC(=N)N)NC(=O)[C@H](CCC(N)=O)NC(=O)[C@@H](NC(=O)[C@H](C)NC(=O)[C@@H]1CSSC[C@H](NC(=O)[C@H](CCCCN)NC(=O)CC[C@H](NC(=O)CCCCCCCCCCCCCCCCCCC(=O)O)C(=O)O)C(=O)N[C@@H](CC(N)=O)C(=O)N[C@@H]([C@@H](C)O)C(=O)N[C@@H](C)C(=O)N[C@@H]([C@@H](C)O)C(=O)N1)[C@@H](C)O)C(=O)N1CCC[C@H]1C(=O)N[C@@H](CO)C(=O)N[C@@H](CO)C(=O)N[C@H](C(=O)N[C@@H](CC(N)=O)C(=O)N[C@H](C(=O)NCC(=O)N[C@@H](Cc1c[nH]cn1)C(=O)N[C@@H](CC(N)=O)C(=O)N[C@H](C(=O)N[C@@H](Cc1ccc(O)cc1)C(N)=O)[C@@H](C)O)C(C)C)[C@@H](C)O
# notes: Derivative of human amylin; also called compound 17
# Target: T1, rat calcitonin receptor
# Assay: SPA competition with 125I-calcitonin, membranes of BHK cells with rat calcitonin receptor (Assay VIII)
row,IC50,Binder
1,47.2 nM,B1
2,55.2 nM,B2
3,7.35 nM,B3
4,13 nM,B4
5,97.2 nM,B5

# Target: T2, human calcitonin receptor
# Assay: ratio IC50 human calcitonin receptor / IC50 human amylin receptor (Assays VII and V)
# Summary of the method: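 Membranes (35 ng/μL final) + SPA beads, 50 mM Hepes pH 7.4 buffer with 1 mM CaCl2, 5 mM MgCl₂, 0.1% OA, 0.02% Tween20; 120 min, 25° C, shaking; centrifuged, counted; IC₅₀ by one-site binding competition.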
row,Ratio hCT/hAmylin binding,Binder
1,16.5,B1
2,19.1,B2
3,2.3,B3
4,9.2,B4
5,12.5,B5

# Target: T1, rat calcitonin receptor
# Assay: ratio IC50 rat calcitonin receptor / IC50 rat amylin receptor (Assays VIII and VI)
row,Ratio rCT/rAmylin binding,Binder
1,42,B1
2,45.6,B2
3,14.3,B3
4,27.3,B4
5,35.9,B5

# Target: T3, rat amylin receptor (rat calcitonin …)
# Assay: SPA competition with 125I-rat amylin, membranes of BHK cells with rat calcitonin receptor + rat RAMP3 (Assay VI)
row,IC50,Binder
1,1.12 nM,B1
2,1.21 nM,B2
3,0.514 nM,B3
4,0.476 nM,B4
5,2.71 nM,B5
